The test system of the series is MS2 coat protein. Description: apparent KD of MS2 coat protein; designed switch direction (-1 OFF switch, 1 ON switch): -1; higher = weaker reporter binding. The essentials: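 Designed RNA switches with common flanks were transcribed on Illumina chips by stalled E. coli RNA polymerase and titrated with SNAP-549-labelled MS2 coat protein, from 0.7 or 1.5 nM doubling to 3 µM, in Tris-HCl pH 7.5 buffer with KCl, MgCl2, BSA, DTT, tRNA and Tween-20. Steps lasted 0.8–1.5 h (lowest) to 10–20 min (highest). Titrations ran without input, with 200 uM small-molecule ligand, or with an oligonucleotide input. Normalised cluster fluorescence was curve-fitted, and apparent KD is the per-design median over clusters.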

The mark [1] stands for this setting: Eterna round: R95, input ligand: FMN 200 uM.
Setting [2] is: Eterna round: R95, input ligand: microRNA oligo, concentration not stated.
Setting [3] is: Eterna round: R95, input ligand: none.
[4] abbreviates: input ligand: microRNA oligo, concentration not stated.

“AAAUAGCAAGUGUGAUCCUACAUGAGGAUCACCCAUGUGUUCGUCUUAUUUGAAGACAACACAAAAGUGUUGUCUUA [Omei Mir OFFv1 B2] (Eterna round: R97, puzzle: Sensor, turn-off variant 1)”: the “apparent KD of MS2 coat protein” value (input ligand: FMN 200 uM) is 32.9 nM and the “apparent KD of MS2 coat protein” value (input ligand: none) worked out at 24.6 nM.

For the sequence “GAUUGAGAGCAGGAUAUCUUAGAAAUGUAUGAAAGAGAAGGGCUCACAUGAGGAUCACCCAUGUGGUCCUAGAU [JL Dibiri mod 17] (puzzle: Exclusion 6)”, the “apparent KD of MS2 coat protein” value under setting [1] was determined as 244 nM, the “apparent KD of MS2 coat protein” value under setting [2] is 22.8 nM and the “apparent KD of MS2 coat protein” value under setting [3] was 27.5 nM.

For the sequence “UUAUACCUAGGAUAUACCUUUGGGUGUAGCCUAAUGUCUGGACAUGAGGAUCACCCAUGUAGAAGGAGGCGAAA [EX2 A.7] (Eterna round: R97, puzzle: Exclusion 2)”, the “apparent KD of MS2 coat protein” value was 244 nM (input ligand: FMN 200 uM) and 78 nM (input ligand: none).

Consider “CCAACCAGAGGAUAUGCGCAUAGAUCAGACUUUGUUUCUGAACAUGAGGAUCACCCAUGUAGAAGGCUGUAACC [Ex2 #86] (Eterna round: R97, puzzle: Exclusion 2)”, for which the “apparent KD of MS2 coat protein” value reads like this: (input ligand: FMN 200 uM) 26 nM; (input ligand: none) 27.3 nM.

For the sequence “UUGAAGUAAGGAUAUACAUGAGGAUCACCCAUGUGGAGGAAGGUGAUGGGAGUAGGUAGUAGAAGGUACGAGGA [JR_Exclu3_Sub063] (puzzle: Exclusion 3)”, the “apparent KD of MS2 coat protein” value is, setting by setting: under setting [1], 124 nM; under setting [2], 100 nM; under setting [3], 220 nM.

For the sequence “GAUCCCAUUGUUAGGAUAUAUAGCCUAACGCGAGUGUAGAAGGGACAUGAGGAUCACCCAUGUGUGCAUUAGGG [Eternabot (L2) Solution 96] (Eterna round: R97, puzzle: Brourd's mod of Exclusion 4)”, the “apparent KD of MS2 coat protein” value is 37.2 nM (input ligand: FMN 200 uM) and 43.8 nM (input ligand: none).

For the sequence “AUUAAAAUAUAGGAUAUCGAAUAUAUUAUUUAACGAGAAGGAUGAACAUGAGGAUCACCCAUGUGGUAUCAUGG [Mat - Exclusion 6 - JL Mod - D36] (puzzle: Exclusion 6)”, the “apparent KD of MS2 coat protein” value reads like this: under setting [1], 157 nM; under setting [2], 298 nM; under setting [3], 402 nM.

Regarding “AGAUCGUCAGGAUAUACAUGAGGAUCACCCAUGUGUAGUCUAAAUUUGACUACAAUAUGUAGAAGGGACGAUCG [Exclusion 3 (MOD3 of #1 Marzena11)] (Eterna round: R97, puzzle: Exclusion 3)”, the “apparent KD of MS2 coat protein” value stood at 98.9 nM (input ligand: FMN 200 uM) and 42.8 nM (input ligand: none).

Turning to “UCACGGGACUAAGGAUAUAUGAGUACCAUUUACAUAGAAGGUAGAAUGUUAGAUCAUAAACUAAACAUGAGGAUCACCCAUGUU [JR_ExcNG1_Sub092] (Eterna round: R96, puzzle: Exclusion NG 1)”, the “apparent KD of MS2 coat protein” value under setting [4] was 15.3 nM.

In the case of “GAUUGAGAGCAGGAUAUCUUAGAAAUGUAUGAAAGAGAAGGGCUCACAUGAGGAUCACCCAUGUGGUCCUAGAU [JL Dibiri mod 17] (Eterna round: R96, puzzle: Exclusion 6)”, the “apparent KD of MS2 coat protein” value (input ligand: FMN 200 uM) is 162 nM, the “apparent KD of MS2 coat protein” value under setting [4] amounted to 17.9 nM and the “apparent KD of MS2 coat protein” value (input ligand: none) was found to be 25.4 nM.

“CUGUUUUUCGCAGGAUAUGCUCCUCCUUUAUUUGCAGAAGGGCGUUAAACAUGAGGAUCACCCAUGUAUGGUAAUGACAUUUUC [JR_ExcNG1_Sub063] (Eterna round: R96, puzzle: Exclusion NG 1)”: the “apparent KD of MS2 coat protein” value by setting is: (input ligand: FMN 200 uM) 135 nM; under setting [4], 20.8 nM; (input ligand: none) 29.6 nM.

As for “UUUAAUUUUUUUUUUUUACAAGCUUUUUGCUCGUCUUAUACAUGAGGAUCACCCAUGUAGGUGGGAGAUAAAUUAUC [JMF 23] (puzzle: Sensor v3, turn-off variant 2)”, the “apparent KD of MS2 coat protein” value under setting [1] was 87.8 nM, the “apparent KD of MS2 coat protein” value under setting [2] was 392 nM and the “apparent KD of MS2 coat protein” value under setting [3] amounted to 131 nM.

On to “CCUCUGUAAGGAUAUACGGAGACCACUGGAAUCAGUGGAAAGUAGAAGGUACAUGAGGAUCACCCAUGUGAGAA [Laveatisce] (puzzle: Exclusion 4)”, for which the “apparent KD of MS2 coat protein” value reads like this: under setting [1], 36.5 nM; under setting [2], 36.2 nM; under setting [3], 49.3 nM.

For “CACAUUACAAAGGAUAUCUGACCAUGCCCUGGCAGAGAAGGUUGGACAUGAGGAUCACCCAUGUGUAUCCAAGU [Eternabot (Original) Solution 6] (Eterna round: R97, puzzle: Exclusion 6)”, the “apparent KD of MS2 coat protein” value (input ligand: FMN 200 uM) amounted to 37.7 nM and the “apparent KD of MS2 coat protein” value (input ligand: none) came to 26.8 nM.

In the case of “AACCUGAGGCUUUGCUUUAGGUGUACAUGAGGAUCACCCAUGUAGGAUAUGGUAGGCAAAGCUUACCAGAAGGACAUUUAGGUU [Mat - Exclusion NG 3 - Mod of JL - D43] (Eterna round: R96, puzzle: Exclusion NG 3)”, the “apparent KD of MS2 coat protein” value reads like this: (input ligand: FMN 200 uM) 72.8 nM; under setting [4], 34.3 nM; (input ligand: none) 41.4 nM.

Turning to “CUUAAACAUGAGGAUCACCCAUGUCAGGAUAUGAUACUAUGUACUUCGGUACAUAGUAUCAGAAGGGAUAUAAA [Ex1-3: 65] (puzzle: Exclusion 1)”, the “apparent KD of MS2 coat protein” value under setting [2] turned out to be 39.3 nM.

Take “ACCUCACAUGAGGAUCACCCAUGUCAGGAUAUCUUUUAUUGCAGCAAUCCUGUCGCUGAGAGAAGGGACAUUAA [EX1 #26] (Eterna round: R97, puzzle: Exclusion 1)”: the “apparent KD of MS2 coat protein” value (input ligand: FMN 200 uM) amounted to 30.7 nM and the “apparent KD of MS2 coat protein” value (input ligand: none) amounted to 26.5 nM.

As to “GCACGGAAUGUAGGAUAUUAGUGCGAUUAGCACUGAGAAGGACAUGAGGAUCACCCAUGUUCCUCAAUAAUAAACCUUCCGUGC [Eli exng1 - 044] (Eterna round: R96, puzzle: Exclusion NG 1)”, the “apparent KD of MS2 coat protein” value came to 13 nM (input ligand: FMN 200 uM), 10.2 nM under setting [4] and 13.3 nM (input ligand: none).

Consider “GUGAAACAUGAGGAUCACCCAUGUCAGGAUAUGCGAAUUUCAUCAAAAGAUGAAAUUUGCAGAAGGGACUGUAC [Omei Ex1 A21] (Eterna round: R97, puzzle: Exclusion 1)”, for which the “apparent KD of MS2 coat protein” value turned out to be 136 nM (input ligand: FMN 200 uM) and 70.3 nM (input ligand: none).

“GCUUUUGGGCAAGGAUAUCCUGCGCGGUUCCGGUUCGUGUCUGUCACAUGAGGAUCACCCAUGUGGGAGAAGGUGCCUGUGGUG [Design 72] (Eterna round: R96, puzzle: Exclusion NG 2)”: the “apparent KD of MS2 coat protein” value (input ligand: FMN 200 uM) was determined as 28.3 nM, the “apparent KD of MS2 coat protein” value under setting [4] stood at 13.6 nM and the “apparent KD of MS2 coat protein” value (input ligand: none) was found to be 18.4 nM.

In the case of “CCUCUGUAAGGAUAUACGGAGACCACUGGAAUCAGUGGAAAGUAGAAGGUACAUGAGGAUCACCCAUGUGAGAA [Laveatisce] (Eterna round: R96, puzzle: Exclusion 4)”, under setting [4], the “apparent KD of MS2 coat protein” value is 67.9 nM.

In the case of “CGCUAGUCAGGAUAUACGAACAUGUCAAAAGACGUGAAGGGACAUGAGGAUCACCCAUGUAGAAGGGACUAGCC [salish99_ex2_r3_011] (puzzle: Exclusion 2)”, the “apparent KD of MS2 coat protein” value by setting is: under setting [1], 111 nM; under setting [2], 21.3 nM; under setting [3], 25.8 nM.

With “CUAGCUAUUGUAGGAUAUCGAUGUGUUUCACAUCGAGAAGGACAUGAGGAUCACCCAUGUGAAAGGAUCGUGAGAUCCAGCUAG [JL ENG1 3.76] (Eterna round: R96, puzzle: Exclusion NG 1)”, the “apparent KD of MS2 coat protein” value runs as follows: (input ligand: FMN 200 uM) 81.9 nM; under setting [4], 18.7 nM; (input ligand: none) 23.5 nM.

Regarding “GAAAAGGUAGGAUAUACGAAAAAAAAGGGUAGAAAAAAAAGACAUGAGGAUCACCCAUGUAGAAGGACCAAAAG [salish99_ex2_r3_061] (puzzle: Exclusion 2)”, the “apparent KD of MS2 coat protein” value by setting is: under setting [1], 76.6 nM; under setting [2], 36.5 nM; under setting [3], 27.1 nM.

As for “AAACUGUGAGGAUAUGGUGAGUAGUGCCUGAGCGCUGCUCACCAGAAGGCACAUGAGGAUCACCCAUGUAUAAA [Mat - Exclusion 4 - Mod of JL - D6] (puzzle: Exclusion 4)”, the “apparent KD of MS2 coat protein” value under setting [2] was found to be 24.2 nM.

With “AGUGCGUAUGUGAGGAUAUGCUGGUCCUUGGAUCAGCAGAAGGCACAUGAGGAUCACCCAUGUGGUGUCGUACU [salish99_Bmod_Ex4_005] (puzzle: Brourd's mod of Exclusion 4)”, the “apparent KD of MS2 coat protein” value under setting [2] is 190 nM.

As for “GGCCUACGAGGAUAUCGCUAGCGGGACAUGAGGAUCACCCAUGUGUCGGACCGCGUCAUGCGAGAAGGUGUAAUGA [Ribeceve] (puzzle: Exclusion 5)”, the “apparent KD of MS2 coat protein” value under setting [2] was found to be 14.9 nM.

With “CGCUCACAUGAGGAUCACCCAUGUCAGGAUAUCUCAGUGCAUCCACACGGACGCAUCAAGAGAAGGGACAAAAC [Vinxlusion 3 - Jieux - Exclusion 1] (Eterna round: R97, puzzle: Exclusion 1)”, the “apparent KD of MS2 coat protein” value is, setting by setting: (input ligand: FMN 200 uM) 189 nM; (input ligand: none) 112 nM.

Take “UGAAAAGACCUAGGAUAUACCCAGUGGGUAGAGGGUCAGAAUAAUAAAACAUGAGGAUCACCCAUGUAGAAGGAGGGAAAGAAG [Laerxe] (Eterna round: R96, puzzle: Exclusion NG 2)”: the “apparent KD of MS2 coat protein” value is, setting by setting: (input ligand: FMN 200 uM) 48.3 nM; under setting [4], 42 nM; (input ligand: none) 59.4 nM.

As to “CAGGAGUCACGAGGAUAUCUGGCUAAACGAACGAGAGAAGGUGUAGACUACCACAUGAGGAUCACCCAUGUUAUGACUAUACUA [Eternabot solution 30] (Eterna round: R96, puzzle: Exclusion NG 1)”, the “apparent KD of MS2 coat protein” value runs as follows: (input ligand: FMN 200 uM) 14.8 nM; under setting [4], 9.94 nM; (input ligand: none) 17.1 nM.

In the case of “GGUUAUUGCAAGGAUAUGCUUUUUUUUGAAAUUGCAGAAGGUGCAACAUGAGGAUCACCCAUGUUGGAUGGGUU [JR_E6_Sub018] (Eterna round: R96, puzzle: Exclusion 6)”, the “apparent KD of MS2 coat protein” value was 252 nM (input ligand: FMN 200 uM), 161 nM under setting [4] and 194 nM (input ligand: none).
